From the RNAGym collection of RNA variant scans (doi:10.1073/pnas.2313332121)

B1: TPR t1 (parent)
chain: GACCAAUCUGCCCUCAGAGCUCGAGAACAUCUUCGGAUGCAGAGGAGGCAGGCUUCGGUGGCGCGAUAGCGCCAACGUCCUCAACCUCCAAUGCAUCCCACCACAUGAUGAUGCCUGAAGAGCCUUGGUUUUUUG

Variants of: B1
Experiment: polymerase ribozyme fitness, log enrichment relative to wild type (log ratio); higher = more active; in vitro selection for triplet polymerase activity
Procedure, shortened: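 After PCR construction and transcription, each subunit's mutant library from a heterodimeric triplet polymerase ribozyme was annealed with a biotinylated primer, the partner subunit and triplets. Incubation was frozen, at −7 °C, and extended constructs were gel-excised, bound to streptavidin beads and amplified by RT-PCR, in one selection round done in triplicate. Fitness is the logarithm of a genotype's enrichment divided by that of the wild type, from inverse-variance-weighted replicate averages of Illumina-sequenced inputs and outputs. The base of the logarithm is 2, and genotypes needed ≥10 input reads and ≥1 read per output.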

| Variant | polymerase ribozyme fitness (log ratio) |
| --- | --- |
| C20U G42A G71U C80U C82A U112C | -2.53 |
| C11U A66C | -1.81 |
| U14A U21A U30G G58C C76U U112C A118C | -5.04 |
| C8G C13A A18U G51U C56A U116C | -5.95 |
| A6C G47U C124A | -1.59 |
| G42U G69U C115A | -1.45 |
| G113U G127C | -1.61 |
| A16C A27G G61A U112C | -1.49 |
| U33G A84C | -6.66 |
| C8A U38A G42U G45A G61U | -1.89 |
| A46C C53U U54G G120U | -0.194 |
| C40U G63C A74C U131A | -2.75 |
| C62A A74U U81C | -5.14 |
| C8G C40A C89A G120A U132A | 0.693 |
| G19A A43U C53U C56A G71C | -5.18 |
| C22A G61U C102A G122A | -5.53 |
| C4U C13U G42U U55C G71A | -2.58 |
| A2C U33A G60A G71U C115U | -6.78 |
| U7C G36U G47C G48C | -2.23 |
| A5C C22A C88G | -5.51 |
| C13A C94U | -2.74 |
| C4G A46U G47A | -4.4 |
| C8G C56U | 0.485 |
| A43U C85G A95C U112C | -2.22 |

| Variant | polymerase ribozyme fitness (log ratio) |
| --- | --- |
| C49U C56A G120C | 0.0733 |
| G52U U126G | -2.79 |
| A6U A18U C76U | -2.81 |
| C62U G107A | -4.72 |
| C114U C123A | -1.94 |
| C11A U30C G47A G63A A121G U131A | -3.75 |
| U55G G71A C101A | -1.24 |
| C11U C49A G107U G113C | -6.14 |
| A43U G48C G57A C89U U106C | -2.94 |
| G10C C20A U54A C64U C88G A118U | -2.75 |
| C4U A27G C62A | -4.35 |
| C8A C12A C34U G39C G61U C85A | -7.04 |
| C11G G25A | -4.53 |
| C86U A95C | -1.49 |
| C20U A83C | -1.52 |
| G39U G63U A121U G135A | 0.925 |
| C64U G69U G128C | -3.93 |
| C70U C94U | -0.0504 |
| A50U C73U | -0.956 |
| C12U C34U A84G C86A G113A | -6.74 |
| A2U G61U G113C C114U | -3.06 |
| G35A C56A C123G G128C | -5.64 |
| U78C G93C U96C C115A | -1.13 |
| G10C A41C C70U | -3.72 |

| Variant | polymerase ribozyme fitness (log ratio) |
| --- | --- |
| C13G U59A | -1.41 |
| C64U U130G | -0.668 |
| C20A C22U U59G C82A A111U | -5.49 |
| G77A C97U | -0.317 |
| C73U U130A U131A | -0.703 |
| G51U U54A C123G U129A | -2.43 |
| A26G A37U C72G C123U U133A | -2.74 |
| A16U U106A | -2.08 |
| G44A C80A C124A | -3.54 |
| G69A A91C U125A | -6.56 |
| C12U U96A | -0.734 |
| C12A G47A C72G G93A G135U | -4.39 |
| C15U A43C | -2.99 |
| A24G A119U C123G U125A | 0.361 |
| A2U A5G G60C | -4 |
| G42A U55G | -1.85 |
| C56U C79A C99U C102A G120A G127U | -5.84 |
| C34A A37C A118G | -2.59 |
| A50C G60C U81G C86U G120C | -1.06 |
| A27U C70A | -4.74 |
| C12G U109A | -4.88 |
| G10U A29C G60A | -3.27 |
| U9G G77A | 0.17 |
| G48A C115U | -1.61 |

| Variant | polymerase ribozyme fitness (log ratio) |
| --- | --- |
| C34U G69U A105U G120U | -2.74 |
| C20G U96G | -3.91 |
| C12U C53U G71U G77A G120C | 1.19 |
| A2G C56G C70G U112A | -3.63 |
| C13G G69A C124A G128A | -4.44 |
| U87C C104U | 0.232 |
| A18C G61C | -2.87 |
| U9G G19C C56A G69C | -6.2 |
| G47C C49A A111U | -5.94 |
| U129A U130C | -0.653 |
| U125A G127C | -1.91 |
| A2U A50C C56U G57U A91U C124G G127C G128C | -4.54 |
| C4U A41C A111U A119C | -6.22 |
| C8A A29U | -1.13 |
| U9G G51U G63C | -3.1 |
| G42A U116A | -3.72 |
| U9A G39U G48A U109A | -6.15 |
| C8U G10A A95C U130G | -1.3 |
| C15U U33G C88G C115G | -6.42 |
| A37C C72U | 0.162 |
| A27G G69C | -2.33 |
| C53G U81G | -1.16 |
| C28U A43U G48U G52C C86A C101A G117C C124U | -7.22 |
| G93C C102U | -3.11 |

| Variant | polymerase ribozyme fitness (log ratio) |
| --- | --- |
| C12U C53G C82U G128A | -1.97 |
| U7G C12A G36U G77U | -0.735 |
| A46C G69A C72A | -4.32 |
| C22G U38A U96C U112A A121U | -3.78 |
| A27G C64A C115G | -7.5 |
| U21A G60U A83U U126C | -0.934 |
| U9A C20G C72U U96G C124U | -3.12 |
| A43C C72A | -2.05 |
| A105C G117A | -5.32 |
| C34A G58C G63U | -4.79 |
| A5G A37C G58U G60U U87A | -1.82 |
| C12A A16C A29U G47A G61A | -3.43 |
| C28G C56U C80U | -4.97 |
| G25C G61C U96C C98A U112G C123U | -6.63 |
| C4G C123A | -0.461 |
| U59A U125A | -0.568 |
| C3G G44A G47A C86G G120A | -4.34 |
| G52U A105G A121C | -2.06 |
| C85U C114U | -3.18 |
| A74U G120A C124G | 2 |
| C13G A50C C53G U96G | -3.94 |
| A26C G35C G39U A90C G117U | -7.41 |
| G42A G110U | -3.64 |
| C3A G57C A90U C114A U132C | -3.92 |

| Variant | polymerase ribozyme fitness (log ratio) |
| --- | --- |
| C31U C53G | -3.58 |
| C40A G52A C101A | -3.1 |
| C88U U116A | -3.45 |
| A29G C72G | -1.98 |
| C12U A74G A83C C114A C123G C124G | -1.02 |
| C89A C124G | -0.00331 |
| C22U G63U | -4.76 |
| C8U C64A U112A | -4.99 |
| A18C A43U G63A U81A | -6.15 |
| C13G C53U G113A G128U | -5.15 |
| G36A A37U C86U U112A G120U | -5.12 |
| C62A U109C | -4.04 |
| C72G C73A A121G | 0.168 |
| A27U G47U C124G | -1.62 |
| A46G G69C G113A | -3.12 |
| C70G C104A | -4.9 |
| G71U C80A U116G G117U A119U | -7.09 |
| G44U G61U | -0.394 |
| G10U A50U C89G | -2.96 |
| C12U C62A U81G C115A | -2.91 |
| C8U C13U G19A C40U C53U U54G A74G U131A | -5.02 |
| G48U G52U C102A | -4.14 |
| C73A C102U | -0.943 |
| G45U C53A A90G C97U | -1.75 |

| Variant | polymerase ribozyme fitness (log ratio) |
| --- | --- |
| C8A G36A G60U C82A G117C U131A G135U | -5.4 |
| C102U C123A | -2.63 |
| U30G G69C A108C | -0.59 |
| A37U G52C G71A C115U U132C | -3.24 |
| U106C | -0.282 |
| U7G A74G | -0.0909 |
| U32G A43U G69U A100C U109C G117U U130A | -7.2 |
| G58A C99U | -2.8 |
| G71A A90C G120A | -1.97 |
| U59G C86U | 0.709 |
| C49A G57U | -0.512 |
| U30C U87A | -2.98 |
| A16U G45A A90G U96A U112G A118C | -3.03 |
| U9G A37U G42A G45C A95G | -3.58 |
| C56A A95C C102A | -3.39 |
| G10A G57U C72A C79A U96A | -2.33 |
| A26U G52U | -4.03 |
| U9C G42A | -1.15 |
| A5C A90U | -2.01 |
| C79A C124G | -0.697 |
| G10U C40G U96G | -4.29 |
| C56G C97A G122A | -4.86 |
| U78C A103U | -5.46 |
